# Measurements as given in patent publication US20220332795A1 (ARO BIOTHERAPEUTICS, published 2022).
# Assays:
# [1] = molecular target: T1, recombinant biotinylated CD71 extracellular domain (Sino Biologics) with an N-terminal 6His tag (human, UniProt P02786 89-760, biotinylated (site not stated)); experiment: primary solution ELISA screen
# T1 construct: extracellular domain; also called hCD71; huCD71 ECD
# [2] = molecular target: T1, recombinant biotinylated CD71 …; experiment: primary solution ELISA screen, signal on hCD71 over HSA
# [3] = molecular target: T2, human CD71 extracellular domain (human, UniProt P02786 89-760, biotinylated); experiment: solution ELISA screen (luminescence)
# T2 construct: extracellular domain; also called hCD71; huCD71 ECD
# CD71 apical domain [4] = molecular target: T3, CD71 apical domain (human, UniProt P02786 189-383, limits assumed); experiment: solution ELISA screen (luminescence)
# T3 construct: domain: apical domain
# [5] = molecular target: T2, human CD71 extracellular domain; experiment: solution ELISA screen, signal ratio to HSA control
# CD71 apical domain [6] = molecular target: T3, CD71 apical domain; experiment: solution ELISA screen, signal ratio to HSA control
# T3 sequence (P02786 189-383 limits assumed): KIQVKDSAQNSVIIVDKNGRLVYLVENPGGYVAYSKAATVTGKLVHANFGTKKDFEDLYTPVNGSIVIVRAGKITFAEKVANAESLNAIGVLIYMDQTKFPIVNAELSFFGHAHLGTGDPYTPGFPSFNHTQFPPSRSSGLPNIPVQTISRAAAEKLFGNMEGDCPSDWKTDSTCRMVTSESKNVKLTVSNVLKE
# T1 sequence (P02786 other isoform, or with tags, fused parts or gaps): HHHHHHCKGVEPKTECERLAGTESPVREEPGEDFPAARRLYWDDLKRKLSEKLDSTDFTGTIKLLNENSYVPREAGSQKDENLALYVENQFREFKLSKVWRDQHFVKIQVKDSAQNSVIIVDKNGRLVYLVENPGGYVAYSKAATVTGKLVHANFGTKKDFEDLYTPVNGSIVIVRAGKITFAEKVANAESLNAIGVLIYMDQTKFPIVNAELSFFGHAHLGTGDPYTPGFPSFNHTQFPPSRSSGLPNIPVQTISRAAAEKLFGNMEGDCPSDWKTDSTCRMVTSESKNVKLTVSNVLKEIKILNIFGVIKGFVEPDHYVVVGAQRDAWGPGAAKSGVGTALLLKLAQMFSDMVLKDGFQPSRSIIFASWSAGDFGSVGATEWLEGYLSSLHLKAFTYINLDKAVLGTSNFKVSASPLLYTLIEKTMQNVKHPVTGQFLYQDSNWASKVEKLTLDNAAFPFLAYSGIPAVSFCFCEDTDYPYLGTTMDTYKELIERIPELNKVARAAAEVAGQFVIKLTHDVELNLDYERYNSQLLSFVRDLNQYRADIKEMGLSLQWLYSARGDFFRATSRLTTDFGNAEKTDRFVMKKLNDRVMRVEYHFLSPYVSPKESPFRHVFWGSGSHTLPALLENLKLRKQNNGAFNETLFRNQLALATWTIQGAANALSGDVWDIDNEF
# T2 sequence (P02786 other isoform, or with tags, fused parts or gaps): as above
RLU [1],hCD71:HSA [2],RLU [3],RLU (CD71 apical domain [4]),hCD71:HSA [5],apical domain:HSA (CD71 apical domain [6]),Binder
–,–,4.07e+06 RLU,7.41e+06 RLU,262 ratio,477 ratio,"SEQ ID NO 236 (designed binder, not shown: small tags and cut ends) MLPAPKNLVVSRVTEDSARLSWTAPDAAFDSFYIAYAEPRPDGEAILLQVPGSERSYDLTGLKPGTEYSVLIHGVKGGLLSSPLDAEFTT"
–,–,4.51e+06 RLU,7.04e+06 RLU,216 ratio,338 ratio,"SEQ ID NO 234 (designed binder, not shown: small tags and cut ends) MLPAPKNLVVSRVTEDSARLSWTAPDAAFDSFYIAYAEPRPDGEAIVLVVPGSERSYDLTGLKPGTEYSVLIHGVKGGLLSSPLSAIFTT"
–,–,3.55e+06 RLU,6.82e+06 RLU,136 ratio,261 ratio,"SEQ ID NO 224 (designed binder, not shown: small tags and cut ends) MLPAPKNLVVSRVTEDSARLSWTAPDAAFDSFYIAYAEPRPDGEAILLRVPGSERSYDLTGLKPGTEYSVLIHGVKGGLLSSPLVAEFTT"
–,–,2.15e+06 RLU,6.38e+06 RLU,135 ratio,400 ratio,"SEQ ID NO 226 (designed binder, not shown: small tags and cut ends) MLPAPKNLVVSRVTEDSARLSWTAPDAAFDSFYIAYAEPRPDGEAIGLHVPGSERSYDLTGLKPGTEYSVLIHGVKGGLLSSPLTASFTT"
–,–,4.58e+06 RLU,7.01e+06 RLU,165 ratio,253 ratio,"SEQ ID NO 237 (designed binder, not shown: small tags and cut ends) MLPAPKNLVVSRVTEDSARLSWTAPDAAFDSFYIAYAEPRPDGEAIVLAVPGSERSYDLTGLKPGTEYSVLIHGVKGGLLSSPLYASFTT"
–,–,3.88e+06 RLU,7.04e+06 RLU,131 ratio,238 ratio,"SEQ ID NO 228 (designed binder, not shown: small tags and cut ends) MLPAPKNLVVSRVTEDSARLSWTAPDAAFDSFYIAYAEPRPDGEAIVLRVPGSERSYDLTGLKPGTEYSVLIHGVKGGLLSSPLAASFTT"
–,–,460000 RLU,4.95e+06 RLU,38.8 ratio,418 ratio,"SEQ ID NO 219 (designed binder, not shown: small tags and cut ends) MLPAPKNLVVSRVTEDSARLSWTAPDAAFDSFYIAYAEPRPDGEAISLKVPGSERSYDLTGLKPGTEYSVLIHGVKGGLLSSPLEAIFTT"
–,–,635000 RLU,4.99e+06 RLU,22.5 ratio,177 ratio,"SEQ ID NO 227 (designed binder, not shown: small tags and cut ends) MLPAPKNLVVSRVTEDSARLSWTAPDAAFDSFYIAYAEPRPDGEAIGLRVPGSERSYDLTGLKPGTEYSVLIHGVKGGLLSSPLSAIFTT"
–,–,772000 RLU,5.61e+06 RLU,35.1 ratio,255 ratio,"SEQ ID NO 233 (designed binder, not shown: small tags and cut ends) MLPAPKNLVVSRVTEDSARLSWTAPDAAFDSFYIAYAEPRPDGEAIQLFVPGSERSYDLTGLKPGTEYSVLIHGVKGGLLSSPLKAYFTT"
–,–,1.1e+06 RLU,6.11e+06 RLU,34.4 ratio,191 ratio,"SEQ ID NO 230 (designed binder, not shown: small tags and cut ends) MLPAPKNLVVSRVTEDSARLSWTAPDAAFDSFYIAYAEPRPDGEAIWLLVPGSERSYDLTGLKPGTEYSVLIHGVKGGLLSSPLVAFFTT"
–,–,3.48e+06 RLU,6.81e+06 RLU,214 ratio,420 ratio,"SEQ ID NO 217 (designed binder, not shown: small tags and cut ends) MLPAPKNLVVSRVTEDSARLSWTAPDAAFDSFYIAYAEPRPDGEAIILEVPGSERSYDLTGLKPGTEYSVLIHGVKGGLLSSPLRAVFTT"
–,–,144000 RLU,2.85e+06 RLU,10.2 ratio,202 ratio,"SEQ ID NO 218 (designed binder, not shown: small tags and cut ends) MLPAPKNLVVSRVTEDSARLSWTAPDAAFDSFYIAYAEPRPDGEAIHLVVPGSERSYDLTGLKPGTEYSVLIHGVKGGLLSSPLSAIFTT"
–,–,1.44e+06 RLU,5.77e+06 RLU,93.4 ratio,374 ratio,"SEQ ID NO 229 (designed binder, not shown: small tags and cut ends) MLPAPKNLVVSRVTEDSARLSWTAPDAAFDSFYIAYAEPRPDGEAIQLLVPGSERSYDLTGLKPGTEYSVLIHGVKGGLLSSPLVAHFTT"
–,–,3.1e+06 RLU,5.05e+06 RLU,117 ratio,190 ratio,"SEQ ID NO 241 (designed binder, not shown: small tags and cut ends) MLPAPKNLVVSRVTEDSARLSWTAPDAAFDSFFIGYLEPQPPGEAIHLGVPGSERSYDLTGLKPGTEYNVTIQGVKGGFPSIPLFASFTT"

# More lines, now with the values behind:
Binder,RLU [1],hCD71:HSA [2],RLU [3],RLU (CD71 apical domain [4]),hCD71:HSA [5],apical domain:HSA (CD71 apical domain [6])
"SEQ ID NO 21 (designed binder, not shown: small tags and cut ends, FN3 domain, hit of the apical domain panning) MLPAPKNLVVSRVTEDSARLSWTAPDAAFDSFSIRYNEFIVAGEAIVLTVPGSERSYDLTGLKPGTEYDVPIAGVKGGGASWPLSAIVTT",579000 RLU,85,–,–,–,–
"SEQ ID NO 23 (designed binder, not shown: small tags and cut ends, FN3 domain, hit of the apical domain panning) MLPAPKNLVVSRVTEDSARLSWTAPDAAFDSFAIWYHEWYGDGEAIVLTVPGSERSYDLTGPKPGTEYRVRISGVKGGFESGPLSAIFTT",1.39e+06 RLU,110,–,–,–,–
"SEQ ID NO 225 (designed binder, not shown: small tags and cut ends) MLPAPKNLVVSRVTEDSARLSWTAPDAAFDSFYIAYAEPRPDGEAILLQVPGSERSYDLTGLKPGTEYSVLIHGVKGGLLSSPLSASFTT",–,–,4.06e+06 RLU,7.38e+06 RLU,239 ratio,435 ratio
"SEQ ID NO 211 (designed binder, not shown: small tags and cut ends) MLPAPKNLVVSRVTEDSARLSWTAPDAAFDSFYIAYAEPRPDGEAIQLHVPGSERSYDLTGLKPGTEYSVLIHGVKGGLLSSPLVAIFTT",–,–,660000 RLU,4.74e+06 RLU,50.6 ratio,363 ratio
"SEQ ID NO 214 (designed binder, not shown: small tags and cut ends) MLPAPKNLVVSRVTEDSARLSWTAPDAAFDSFYIAYAEPRPDGEAIGLQVPGSERSYDLTGLKPGTEYSVLIHGVKGGLLSSPLCAEFTT",–,–,393000 RLU,4.3e+06 RLU,13 ratio,143 ratio
"SEQ ID NO 209 (designed binder, not shown: small tags and cut ends, also called ABX1198) MLPAPKNLVVSRVTEDSARLSWTAPDAAFDSFYIAYAEPRPDGEAILLQVPGSCRSYDLTGLKPGTEYSVLIHGVKGGLLSSPLTAIFTT",–,–,6.2e+06 RLU,8.3e+06 RLU,348 ratio,466 ratio
"SEQ ID NO 207 (designed binder, not shown: small tags and cut ends) MLPAPKNLVVSRVTEDSARLSWTAPDAAFDSFYIAYAEPRPDGEAIHLSVPGSERSYDLTGLKPGTEYSVLIHGVKGGLLSSPLAAYFTT",–,–,2.74e+06 RLU,7.11e+06 RLU,22.6 ratio,58.8 ratio
"SEQ ID NO 212 (designed binder, not shown: small tags and cut ends) MLPAPKNLVVSRVTEDSARLSWTAPDAAFDSFYIAYAEPRPDGEAIWLAVPGSERSYDLTGLKPGTEYSVLIHGVKGGLLSSPLHAQFTT",–,–,467000 RLU,5.09e+06 RLU,26.8 ratio,292 ratio
"SEQ ID NO 206 (designed binder, not shown: small tags and cut ends) MLPAPKNLVVSRVTEDSARLSWTAPDAAFDSFYIAYAEPRPDGEAIGLDVPGSERSYDLTGLKPGTEYSVLIHGVKGGLLSSPLSAIFTT",–,–,828000 RLU,5.22e+06 RLU,59.1 ratio,373 ratio
"SEQ ID NO 215 (designed binder, not shown: small tags and cut ends) MLPAPKNLVVSRVTEDSARLSWTAPDAAFDSFYIAYAEPRPDGEAIVLWVPGSERSYDLTGLKPGTEYSVLIHGVKGGLLSSPLIAEFTT",–,–,2.02e+06 RLU,5.84e+06 RLU,90.4 ratio,261 ratio
"SEQ ID NO 31 (designed binder, not shown: small tags and cut ends, FN3 domain, hit of the apical domain panning) MLPAPKNLVVSRVTEDSARLSWTAPDAAFDSFTIEYSEHPIDGEAIPLFVPGSERSYDLTGLKPGTEYYVRIHGVKGGWFSHPLWAFFTT",642000 RLU,138,–,–,–,–
"SEQ ID NO 27 (designed binder, not shown: small tags and cut ends, FN3 domain, hit of the apical domain panning) MLPAPKNLVVSRVTEDSARLSWTAPDAAFDSFRISYAETVRQGEAIVLTVPGSERSYDLTVETGYRNWVMILGVKGGPGSLPLSAIFTT",297000 RLU,127,–,–,–,–
"SEQ ID NO 22 (designed binder, not shown: small tags and cut ends, FN3 domain, hit of the apical domain panning) MLPAPKNLVVSRVTEDSARLSWTAPDAAFDSFWYLELQFAGEAIVLTVPGSERSYDLTGLKPGTEYNVPITGVKGGIISFPLSAIFTT",3.15e+06 RLU,105,–,–,–,–
"SEQ ID NO 24 (designed binder, not shown: small tags and cut ends, FN3 domain, hit of the apical domain panning) MLPAPKNLVVSRVTEDSARLSWTAPDAAFDSFMIRYQEGTRWGEAIVLTVPGSERSYDLTGLKPGTEYIVMIAGVKGGQISLPLSAIFTT",2.45e+06 RLU,374,–,–,–,–
"SEQ ID NO 35 (designed binder, not shown: small tags and cut ends, FN3 domain, hit of the apical domain panning) MLPAPKNLVVSRVTEDSARLSWTAPDAAFDSFPISYIESIADGEAIVLTVPGSERSYDLTGLKPGTEYWVAIVGVKGGPFSWSLSAIVTT",1.99e+06 RLU,106,–,–,–,–
"SEQ ID NO 25 (designed binder, not shown: small tags and cut ends, FN3 domain, hit of the apical domain panning) MLPAPKNLVVSRVTEDSARLSWTAPDAAFDSFPIWYLEKSYQGEAIVLTVPGSERSYDLTGLKPGTEYVVPIIGVKGGRDSCPLSAIFTT",222000 RLU,58,–,–,–,–
